Measured values reported in the Human Domainome abundance scans (Beltran et al. 2025).
± gives the uncertainty stated by the source.

B1: WW domain-binding protein 4, residues 8 to 43; numbered along this chain, O75554 (parent)
chain: QPKKFCDYCKCWIADNRPSVEFHERGKNHKENVAKR

Variants of: B1
Assay: abundance fitness (aPCA) (normalised: wild type 0, dead -1); higher = more abundant; growth selection in yeast, the domain comes from the species named
Settings: Homo sapiens
QPKKFCDYCKCWIADNRPSVEFHERKKNHKENVAKR gave an abundance fitness of -0.257 ± 0.14. Work on QPKKFCDYCKCWIADNRPSVEFHERCKNHKENVAKR yielded an abundance fitness of -0.197 ± 0.097. For QPKKFCDYCKCWIADNRPSVEFHERMKNHKENVAKR, the abundance fitness was 0.057 ± 0.091. With QPKKFCDYCKCWIADNRPSVEFHERIKNHKENVAKR the abundance fitness was -1 ± 0.28. With QPKKFCDYCKCWIADNRPSVEFHERQKNHKENVAKR the abundance fitness was 0.038 ± 0.085. In the case of QPKKFCDYCKCWIADNRPSVEFHEREKNHKENVAKR, the abundance fitness is reported as 0.153 ± 0.1. With QPKKFCDYCKCWIADNRPSVEFHERTKNHKENVAKR the abundance fitness was -0.123 ± 0.089. Variant QPKKFCDYCKCWIADNRPSVEFHERWKNHKENVAKR has an abundance fitness of -0.277 ± 0.068. QPKKFCDYCKCWIADNRPSVEFHERVKNHKENVAKR showed an abundance fitness of -0.18 ± 0.068. QPKKFCDYCKCWIADNRPSVEFHERLKNHKENVAKR gave an abundance fitness of -0.28 ± 0.079. Variant QPKKFCDYCKCWIADNRPSVEFHERPKNHKENVAKR has an abundance fitness of -0.547 ± 0.11. Work on QPKKFCDYCKCWIADNRPSVEFHERAKNHKENVAKR yielded an abundance fitness of -0.072 ± 0.058. QPKKFCDYCKCWIADNRPSVEFHERHKNHKENVAKR gave an abundance fitness of 0.08 ± 0.15. Variant QPKKFCDYCKCWIADNRPSVEFHELGKNHKENVAKR has an abundance fitness of -0.106 ± 0.066. Work on QPKKFCDYCKCWIADNRPSVEFHEWGKNHKENVAKR yielded an abundance fitness of -0.331 ± 0.092. Work on QPKKFCDYCKCWIADNRPSVEFHEVGKNHKENVAKR yielded an abundance fitness of 0.003 ± 0.073. In the case of QPKKFCDYCKCWIADNRPSVEFHESGKNHKENVAKR, the abundance fitness is reported as -0.037 ± 0.073. Variant QPKKFCDYCKCWIADNRPSVEFHEKGKNHKENVAKR has an abundance fitness of 0 ± 0.078. QPKKFCDYCKCWIADNRPSVEFHEDGKNHKENVAKR showed an abundance fitness of 0.099 ± 0.095. QPKKFCDYCKCWIADNRPSVEFHEGGKNHKENVAKR gave an abundance fitness of 0.039 ± 0.061. Work on QPKKFCDYCKCWIADNRPSVEFHEYGKNHKENVAKR yielded an abundance fitness of -0.357 ± 0.14. In the case of QPKKFCDYCKCWIADNRPSVEFHEQGKNHKENVAKR, the abundance fitness is reported as 0.049 ± 0.088. QPKKFCDYCKCWIADNRPSVEFHECGKNHKENVAKR showed an abundance fitness of -0.133 ± 0.097. QPKKFCDYCKCWIADNRPSVEFHEEGKNHKENVAKR gave an abundance fitness of -0.039 ± 0.07. Variant QPKKFCDYCKCWIADNRPSVEFHEMGKNHKENVAKR has an abundance fitness of 0.079 ± 0.086. With QPKKFCDYCKCWIADNRPSVEFHEAGKNHKENVAKR the abundance fitness was 0.078 ± 0.064. QPKKFCDYCKCWIADNRPSVEFHEPGKNHKENVAKR showed an abundance fitness of -0.428 ± 0.072. With QPKKFCDYCKCWIADNRPSVEFHETGKNHKENVAKR the abundance fitness was 0.014 ± 0.081. With QPKKFCDYCKCWIADNRPSVEFHERGKEHKENVAKR the abundance fitness was -0.015 ± 0.078. Work on QPKKFCDYCKCWIADNRPSVEFHERGKMHKENVAKR yielded an abundance fitness of 0.326 ± 0.16. For QPKKFCDYCKCWIADNRPSVEFHERGKVHKENVAKR, the abundance fitness was -0.016 ± 0.088. QPKKFCDYCKCWIADNRPSVEFHERGKSHKENVAKR showed an abundance fitness of -0.001 ± 0.17. In the case of QPKKFCDYCKCWIADNRPSVEFHERGKRHKENVAKR, the abundance fitness is reported as 0.149 ± 0.062. QPKKFCDYCKCWIADNRPSVEFHERGKTHKENVAKR gave an abundance fitness of -0.102 ± 0.11. Variant QPKKFCDYCKCWIADNRPSVEFHERGKLHKENVAKR has an abundance fitness of 0.046 ± 0.084. QPKKFCDYCKCWIADNRPSVEFHERGKCHKENVAKR gave an abundance fitness of -0.097 ± 0.2. For QPKKFCDYCKCWIADNRPSVEFHERGKQHKENVAKR, the abundance fitness was -0.087 ± 0.11. For QPKKFCDYCKCWIADNRPSVEFHERGKFHKENVAKR, the abundance fitness was 0.106 ± 0.092. In the case of QPKKFCDYCKCWIADNRPSVEFHERGKGHKENVAKR, the abundance fitness is reported as 0.109 ± 0.081. In the case of QPKKFCDYCKCWIADNRPSVEFHERGKPHKENVAKR, the abundance fitness is reported as -0.047 ± 0.11. Work on QPKKFCDYCKCWIADNRPSVEFHERGKWHKENVAKR yielded an abundance fitness of 0.147 ± 0.1. QPKKFCDYCKCWIADNRPSVEFHERGKNDKENVAKR showed an abundance fitness of -0.995 ± 0.45. With QPKKFCDYCKCWIADNRPSVEFHERGKNCKENVAKR the abundance fitness was -0.464 ± 0.25. In the case of QPKKFCDYCKCWIADNRPSVEFHERGKNKKENVAKR, the abundance fitness is reported as -0.562 ± 0.21. QPKKFCDYCKCWIADNRPSVEFHERGKNEKENVAKR gave an abundance fitness of -0.325 ± 0.11. Variant QPKKFCDYCKCWIADNRPSVEFHERGKNQKENVAKR has an abundance fitness of -0.656 ± 0.14. Work on QPKKFCDYCKCWIADNRPSVEFHERGKNSKENVAKR yielded an abundance fitness of -0.542 ± 0.083. In the case of QPKKFCDYCKCWIADNRPSVEFHERGKNFKENVAKR, the abundance fitness is reported as -1 ± 0.32. QPKKFCDYCKCWIADNRPSVEFHERGKNTKENVAKR showed an abundance fitness of -0.63 ± 0.11. Variant QPKKFCDYCKCWIADNRPSVEFHERGKNNKENVAKR has an abundance fitness of -0.444 ± 0.099. Variant QPKKFCDYCKCWIADNRPSVEFHERGKNWKENVAKR has an abundance fitness of -0.481 ± 0.11. For QPKKFCDYCKCWIADNRPSVEFHERGKNAKENVAKR, the abundance fitness was -0.309 ± 0.096. For QPKKFCDYCKCWIADNRPSVEFHERGKNYKENVAKR, the abundance fitness was -0.736 ± 0.18. Work on QPKKFCDYCKCWIADNRPSVEFHERGKNRKENVAKR yielded an abundance fitness of -0.626 ± 0.084. With QPKKFCDYCKCWIADNRPSVEFHERGKNMKENVAKR the abundance fitness was -0.475 ± 0.25. Variant QPKKFCDYCKCWIADNRPSVEFHERGKNVKENVAKR has an abundance fitness of -0.349 ± 0.12. In the case of QPKKFCDYCKCWIADNRPSVEFHERGKNPKENVAKR, the abundance fitness is reported as -0.894 ± 0.46. QPKKFCDYCKCWIADNRPSVEFHERGSNHKENVAKR showed an abundance fitness of -0.128 ± 0.1. For QPKKFCDYCKCWIADNRPSVEFHERGFNHKENVAKR, the abundance fitness was -0.189 ± 0.13. For QPKKFCDYCKCWIADNRPSVEFHERGRNHKENVAKR, the abundance fitness was -0.08 ± 0.061. QPKKFCDYCKCWIADNRPSVEFHERGGNHKENVAKR gave an abundance fitness of -0.096 ± 0.057. For QPKKFCDYCKCWIADNRPSVEFHERGPNHKENVAKR, the abundance fitness was -0.226 ± 0.11. QPKKFCDYCKCWIADNRPSVEFHERGQNHKENVAKR gave an abundance fitness of -0.032 ± 0.096. In the case of QPKKFCDYCKCWIADNRPSVEFHERGWNHKENVAKR, the abundance fitness is reported as -0.218 ± 0.064. For QPKKFCDYCKCWIADNRPSVEFHERGANHKENVAKR, the abundance fitness was 0.026 ± 0.069. QPKKFCDYCKCWIADNRPSVEFHERGENHKENVAKR showed an abundance fitness of 0.036 ± 0.073. Variant QPKKFCDYCKCWIADNRPSVEFHERGMNHKENVAKR has an abundance fitness of -0.115 ± 0.12. With QPKKFCDYCKCWIADNRPSVEFHERGLNHKENVAKR the abundance fitness was -0.114 ± 0.061. In the case of QPKKFCDYCKCWIADNRPSVEFHERGDNHKENVAKR, the abundance fitness is reported as -0.192 ± 0.098.
